Test system: MS2 coat protein
Assay: apparent KD of MS2 coat protein; designed switch direction (-1 OFF switch, 1 ON switch): -1; higher = weaker reporter binding
Procedure, shortened: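 Transcription of designed RNA switches on Illumina chips was done by stalled E. coli RNA polymerase. SNAP-549-labelled MS2 coat protein was then titrated in doubling steps from 0.7 or 1.5 nM to 3 µM, with steps of 0.8–1.5 h at the lowest and 10–20 min at the highest concentration. The per-design median over clusters of curve-fitted normalised fluorescence is reported as apparent KD.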

[1] = Eterna round: R95, input ligand: microRNA oligo, concentration not stated
[2] = input ligand: microRNA oligo, concentration not stated
[3] = Eterna round: R95, input ligand: FMN 200 uM
[4] = Eterna round: R95, input ligand: none

Row | Sequence | apparent KD of MS2 coat protein (input ligand: FMN 200 uM) [nM] | apparent KD of MS2 coat protein (input ligand: none) [nM] | apparent KD of MS2 coat protein [1] [nM] | apparent KD of MS2 coat protein [2] [nM] | apparent KD of MS2 coat protein [3] [nM] | apparent KD of MS2 coat protein [4] [nM]
1 | CUCAUGUGAGGAUAUCACAUAGCGUCACGGCUGUAACAUUUUGAGAAGGCACAUGAGGAUCACCCAUGUGACAC [Eternabot (L2) Solution 79] (Eterna round: R97, puzzle: Exclusion 4) | 104 | 46.6 |  |  |  | 
2 | CUCAUGUGAGGAUAUCAGUAGUGAUACGAUAGUAUUACUGCUGAGAAGGUACAUGAGGAUCACCCAUGUUCCUC [Exclusion 4 - Mod Omei Ex4 344 mod 4 v.3] (puzzle: Exclusion 4) |  |  | 26.9 |  |  | 
3 | CUCAUGUGAGGAUAUGUGAUCAACCUUCUGUAUAGAUGAUGACAGAAGGCACAUGAGGAUCACCCAUGUAGAUC [Ex4 - 3 - 18] (puzzle: Exclusion 4) |  |  | 46.7 |  |  | 
4 | CUCCUACUUGUAGGAUAUCAGAGAUAACAUGAGGAUCACCCAUGUUGGGUCAUCAACUCAGUCGGUGAGAAGGACAGAAGUUGG [Eternabot solution 42] (Eterna round: R96, puzzle: Exclusion NG 2) | 96.1 | 63.2 |  | 68.6 |  | 
5 | CUCCUCAUGGCGCCUAAACACAUGAGGAUCACCCAUGUAUAGGCUUUUUGCCGUCUUAUAAUAAAACCGAGGAUGCG [Rianza] (puzzle: Sensor v3, turn-off variant 1) |  |  | 276 |  | 28.7 | 21.9
6 | CUCCUGUAAGGAUAUCUGACAAGUGACGAAAGUCACAGUUCAGAGAAGGUACAUGAGGAUCACCCAUGUAGAAC [Exclusion 4 - Mod Brourd Ex 4-3: 41 v.2] (puzzle: Exclusion 4) |  |  | 31 |  |  | 
7 | CUCGAGUCAGGAUAUGUUCCGCAUGGCAACAUGCUAUAAGAAUAGAAGGGACAUGAGGAUCACCCAUGUUAACA [Eternabot (Original) Solution 12] (Eterna round: R97, puzzle: Exclusion 4) | 162 | 44.7 |  |  |  | 
8 | CUCGUGCAGCAAAGCUGUACGAGUACAUGAGGAUCACCCAUGUAGGAUAUGGUACGCAAAGCGUGCUAGAAGGACGUGUGUAAG [Mat - Exclusion NG 3 - Mod of JL - D92] (Eterna round: R96, puzzle: Exclusion NG 3) | 118 | 47.7 |  | 33.4 |  | 
9 | CUCGUGCAGCAAAGCUGUACGAGUACAUGAGGAUCACCCAUGUAGGAUAUGGUACGCAAAGCGUGCUAGAAGGAUAUGUGUAGG [Mat - Exclusion NG 3 - Mod of JL - D87] (Eterna round: R96, puzzle: Exclusion NG 3) | 61.5 | 50.5 |  | 32.7 |  | 
10 | CUCGUGUGAGGAUAUCCUCUUAUAUAACAAAGGUUGAAGCAGGAGAAGGCACAUGAGGAUCACCCAUGUGCAUA [EX4 C.6] (Eterna round: R97, puzzle: Exclusion 4) | 46.4 | 16.9 |  |  |  | 
11 | CUCUGCACGCUGCGGUCCUACAUGAGGAUCACCCAUGUGGUCUGGUGGCGUGGGUCGCCGGACUUGGCUCGUCUUGA [salish99_S_TOV1_R5_046] (Eterna round: R97, puzzle: Sensor, turn-off variant 1) | 19 | 18.7 |  |  |  | 
12 | CUCUUGUUAGGAUAUCAAACCAGUGACGGAACCACUGGAAGUGAGAAGGGACAUGAGGAUCACCCAUGUAAGAA [Edraate] (puzzle: Exclusion 4) |  |  | 52.3 |  |  | 
13 | CUGAAAUUCGUAAGGAUAUGUUCCAUCAAAUAGGAGCAGAAGGUACAUGAGGAUCACCCAUGUCAGUAGAUCCA [Eternabot (L1) Solution 47] (Eterna round: R97, puzzle: Brourd's mod of Exclusion 4) | 130 | 40.2 |  |  |  | 
14 | CUGAACCCGGUAGGAUAUAUUGUGGGCAAGCAUGGAACGACAUGAGGAUCACCCAUGUAAUUUAGGUAGAAGGGCCAAGAGAUU [Excl-NG2-LRO10] (Eterna round: R96, puzzle: Exclusion NG 2) | 74.2 | 73.7 |  | 41.8 |  | 
15 | CUGAAUCGAGGAUAUACAUGAGGAUCACCCAUGUAUACUGUCUUGGUGAGAGUCCCGUGUAGAAGGCGACAGGC [EX3 B.6] (Eterna round: R97, puzzle: Exclusion 3) | 60.1 | 35.9 |  |  |  | 
16 | CUGAGCAGACGAAGAUCCAACAUGAGGAUCACCCAUGUCUCAAAAGCUUUUUGCUCGUCUUAUCCUUCUCUGUUCUC [Reisedzaqu] (puzzle: Sensor v3, turn-off variant 1) |  |  | 176 |  | 16 | 13
17 | CUGAGCAGACGGAGAUCCAACAUGAGGAUCACCCAUGUCUCAAAAGCUUUUUGCUCAUCUUAUCGUACCUUGGUGCU [JL ViennaUCT Edcesobi mod 1] (puzzle: Sensor v3, turn-off variant 1) |  |  | 20.2 |  | 406 | 445
18 | CUGAGCAGACGGAGAUCCAACAUGAGGAUCACCCAUGUCUCAAAAGCUUUUUGCUCAUCUUAUUGUACCUUGGUGCU [JL ViennaUCT Edcesobi mod 2] (puzzle: Sensor v3, turn-off variant 1) |  |  | 17.6 |  | 391 | 342
19 | CUGAGCAGACGGAGAUCCAACAUGAGGAUCACCCAUGUCUCAGAAGCUUUUUGCUCGUCUUAUCCUCCUCUGUUCAC [Elimod 21 - Jieux - Sensor, turn-off variant 1] (Eterna round: R97, puzzle: Sensor, turn-off variant 1) | 103 | 119 |  |  |  | 
20 | CUGAGCUGAGGAUAUACAUGAGGAUCACCCAUGUUUUGUAGAUAGUGAAGAAGUAGAUGUAGAAGGCAGUUCGG [Mod of JL 24 - Jieux - Exclusion 3] (Eterna round: R97, puzzle: Exclusion 3) | 206 | 146 |  |  |  | 
21 | CUGAGGUAGCGGUCCUAUGACAUGAGGAUCACCCAUGUACCUUGCUACGAGCUUUUUGCUCGUCUUAUGAUUCUCGG [JL Atriat mod 4] (puzzle: Sensor v3, turn-off variant 1) |  |  | 93.9 |  | 166 | 250
22 | CUGAGGUAGCGGUCCUAUGACAUGAGGAUCACCCAUGUACCUUGCUUUGAGCUAUUUGCUCGUCUUAUGAUUCUCGG [Mat - Sensor v3 - turn-off var 1 - JL Mod - D40] (Eterna round: R96, puzzle: Sensor v3, turn-off variant 1) | 788 | 758 |  | 655 |  | 
23 | CUGAGGUAGCGGUCCUAUGACAUGAGGAUCACCCAUGUACCUUGCUUUGAGCUAUUUGCUCGUCUUAUGAUUCUCGG [Mat - Sensor v3 - turn-off var 1 - JL Mod - D40] (puzzle: Sensor v3, turn-off variant 1) |  |  | 355 |  | 457 | 545
24 | CUGAGUUCAGGAUAUACAUGAGGAUCACCCAUGUAAAGUAGCUUGCGUACAGGCAGAUGUAGAAGGGAAUUCGG [Mod of JL 6 - Jieux - Exclusion 3] (Eterna round: R97, puzzle: Exclusion 3) | 30.2 | 19 |  |  |  | 

From the supplement of paper PMC9170038
